Positions count from the first letter of the chain named.
Key:
[1] = target: T1, CCR-3 receptor (Homo sapiens, UniProt P51677, Y235E); assay: SRE-Luc + Gq5i luciferase reporter assay, wild-type or mutant CCR-3 receptor; format: cell-based; conditions: basal activity of mutant vs wild-type
T1 construct: expressed in transfected cells; host or cells: HEK293 (inferred: assay 'as described above for the serotonin 2A receptor')
T1 sequence (P51677 1-355 Y235E): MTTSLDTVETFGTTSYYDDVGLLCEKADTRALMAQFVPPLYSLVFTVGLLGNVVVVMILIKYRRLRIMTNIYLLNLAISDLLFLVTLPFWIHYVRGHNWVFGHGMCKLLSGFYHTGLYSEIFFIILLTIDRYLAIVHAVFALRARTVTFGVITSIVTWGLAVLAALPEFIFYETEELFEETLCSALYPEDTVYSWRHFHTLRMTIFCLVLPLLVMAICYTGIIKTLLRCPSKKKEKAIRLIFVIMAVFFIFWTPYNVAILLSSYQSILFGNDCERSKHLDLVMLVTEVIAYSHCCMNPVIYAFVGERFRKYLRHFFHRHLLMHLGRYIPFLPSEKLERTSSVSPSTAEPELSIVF
Excerpt: (§1) Alternatively, Gαi coupling can also be measured using a positive assay (i.e., one that yields an increase in activity upon receptor activation), instead of a negative assay (i.e., one that yields a decrease in activity upon receptor activation). This assay provides a more detectable output signal and less interassay variation. In one such assay, a chimeric G protein (Gq5i, Broach and Thomer, Nature 384 (Suppl.):14-16 (1996)) that contains the entire Gαq protein having the five C-terminal amino acids from Gαi attached to the C-terminus of Gαq is used. This chimeric G protein is recognized as Gαi by Gαi coupled receptors, but switches the receptor induced signaling from Gαi to Gαq. This allows Gαi receptor coupling to be detected using a positive assay by use of a Gαq responsive SMS-Luc or SRE-Luc construct (Stratagene, La Jolla, Calif.). SMS and SRE preferably respond to Gαq mediated inositol and calcium production. Moreover, detection can be carried out in the absence of forskolin pre-stimulation of cells.
(§2) The basal activity of the Tyr235Glu mutant CCR-3 receptor was assessed using a luciferase assay. The CCR-3 receptor is a Gαi coupled receptor. Therefore, we chose to use the SRE-Luc+Gq5i reporter system, described in detail above (Broach and Thorner, supra), which switches the signaling pathway from Gαi to Gαq for reliable positive readout. The luciferase assay was carried out as described above for the serotonin 2A receptor.

[2] = test system: CCR-3 receptor; assay: as above; format: cell-based, human; conditions: luciferase activity; for Ligand-stimulated Activity / Basal Activity: average of 5 experiments; for Basal Activity: no ligand
Excerpt: as §1, §2

B1: Lys323Glu CCR-3: silenced mutant CCR-3 receptor with Tyr to Glu substitution at position 235 of SEQ ID NO: 2 (protein, UniProt P51677 1-355, looked up, variant Y235E)
C-C chemokine receptor type 3: T1 sequence (P51677 1-355 Y235E)
basal activity compared to wild-type receptor (in words) [1]: decrease in basal activity | Stimulated/Basal Ratio [2]: 12 | Ligand-stimulated Activity [2]: 151,445 | Basal Activity [2]: 12,626

B2: wild-type CCR-3: wild-type CC chemokine receptor 3 (CCR-3), G protein-coupled receptor, SEQ ID NO: 2 (protein, UniProt P51677 1-355, looked up)
C-C chemokine receptor type 3: T1 sequence (P51677 1-355 Y235E) with E235Y
Stimulated/Basal Ratio [2]: 4.7 | Ligand-stimulated Activity [2]: 157,389 | Basal Activity [2]: 33,177
